Biological target: Synthetic human amyloid protein Aβ1-42 or Aβ1-40 (UniProt P05067)
Sequence (P05067 whole entry, looked up, tested part not stated): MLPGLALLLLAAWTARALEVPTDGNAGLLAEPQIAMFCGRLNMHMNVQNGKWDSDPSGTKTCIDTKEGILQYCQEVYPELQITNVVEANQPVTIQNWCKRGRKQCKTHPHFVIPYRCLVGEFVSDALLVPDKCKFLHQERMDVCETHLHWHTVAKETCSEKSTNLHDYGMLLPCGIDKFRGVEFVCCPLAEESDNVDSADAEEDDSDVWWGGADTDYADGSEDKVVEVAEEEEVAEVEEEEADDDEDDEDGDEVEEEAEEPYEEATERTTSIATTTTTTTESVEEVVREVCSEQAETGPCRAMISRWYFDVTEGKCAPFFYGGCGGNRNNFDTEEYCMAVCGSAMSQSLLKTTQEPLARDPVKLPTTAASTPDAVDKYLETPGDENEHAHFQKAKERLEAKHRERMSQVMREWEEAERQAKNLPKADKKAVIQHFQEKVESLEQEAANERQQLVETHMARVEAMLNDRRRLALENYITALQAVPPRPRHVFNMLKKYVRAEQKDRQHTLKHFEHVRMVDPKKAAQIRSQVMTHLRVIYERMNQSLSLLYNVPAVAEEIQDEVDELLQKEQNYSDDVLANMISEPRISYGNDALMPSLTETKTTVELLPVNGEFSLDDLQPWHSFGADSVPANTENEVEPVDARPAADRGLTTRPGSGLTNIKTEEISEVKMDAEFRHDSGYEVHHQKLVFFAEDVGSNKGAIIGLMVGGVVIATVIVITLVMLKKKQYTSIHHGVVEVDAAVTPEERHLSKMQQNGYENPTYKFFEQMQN

With KLK1 (Sigma) the “cleavage of amyloid fibrils in vitro, mass spectra after digestion” value was “KLK1 cleaves amyloid fibrils (FIG. 1); in panel C, there is a clear peak at about 2423 M/Z (mass to charge ration), which is an indication of cleavage” and the “cleavage of soluble amyloid in vitro, mass spectra after digestion” value was “In panel B, there are no visible peaks when KLK1 was added to soluble amyloid. This indicates that KLK1 cleaved the soluble amyloid into smaller fragments”.

From US20100226910
